Assay results published in the nanobody polyreactivity screen of Harvey et al. (2022).

Experiment: yeast display, Sf9 membrane polyspecificity reagent, FACS + sequencing; frameworks hold sequencing errors
Outline: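 Sorting gates, low and high (top ~1%), were placed on anti-HA fluorescence to track expression and on streptavidin fluorescence to track reagent binding. A clone's polyreactivity label is taken from the gate it came out of. The reagent was 10% biotinylated, detergent-solubilized Sf9 membrane, applied for 1 hour at 4 °C to galactose-induced yeast display cells.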

| Sequence | polyreactivity (PSR sort gate) |
| --- | --- |
| QVQLVESGGGLVQAGGSLRLSCAASGSIFQYYAMGWYRQAPGKERELVAAISSGGRTNYADSVKGRFTISRDNAKNTDYLQMNSLKPEDTAVYYCAAARYYYQVYRWEYDYWGQGTQVTVSS | high polyreactivity |
| QVQLVESGGGLVQAGGSLRLSCAASGSIFRANTMGWYRQAPGKERELVAVISSGGRTYYADSVKGRFTISRDNAKNTVYLQMNSLKPEDTAVYYCAAKRGYGYGYWGQGTQVTVSS | high polyreactivity |
| QVQLVESGGGLVQAGGSLRLSCAASGSIFRAYAMGWYRQAHGKERELVAAITGNGARTYYADSVKGRFTISRDNAKNTVYLQMNSLKPEDTAVYYCAKRGNRQHRWWYDYWGQGTQVTVSS | low polyreactivity |
| QVQLVESGGGLVQAGGSLRLSCAASGSIFRAYAMGWYRQAPGKERELVAAITNGGGTTYYADSVKGRFTISRDNAKNTVYLQMNSLKPEDTAVYYCAADGAYSYASYDYWGQGTQVTVSS | low polyreactivity |
| QVQLVESGGGLVQAGGSLRLSCAASGSIFRAYAMGWYRQAPGKERELVADISRSGGSTYYADSVKGRFTISRDNAKNTVYLQLNSLKPEDTAVYYCAAVFYLYSNLYGEYDYWGQGTQVTVSS | low polyreactivity |
| QVQLVESGGGLVQAGGSLRLSCAASGSIFRAYAMGWYRQAPGKERELVADISRSGGSTYYADSVKGRFTISRDNAKNTVYLQMNSLKPEDTAVYYCAAVFYLYSNLYGEYDYWGQGTQVTVSS | low polyreactivity |
| QVQLVESGGGLVQAGGSLRLSCAASGSIFRDNTMGWYRQAPGKERELVAAISYSGGGTYYADSVKGRVTISRDNAKNTVYLQMNSLKPEDTAVYYCAKRTYPWYYREIPYGYWGQGTQVTVSS | high polyreactivity |
| QVQLVESGGGLVQAGGSLRLSCAASGSIFREYVMGWYRQAPGKEREFVAAISVSGGSTNYADSVKGRFTISRDNAKNTVYLQMNSLKPEDTAVYYCNADGVLTGYSRGGWYYWGQGTQVTVSS | low polyreactivity |
| QVQLVESGGGLVQAGGSLRLSCAASGSIFRFNPMGWYRQAPGKERELVAAISWSGGLTYYADSVKGRFTISRDNAKNTVSLQMNSLKPEDTAVYYCNAGRRYPLRYDYWGQGTQVTVSS | high polyreactivity |
| QVQLVESGGGLVQAGGSLRLSCAASGSIFRFNVMGWYRQAPGKERELVAAITRGDSTNYADSVKGRFTISRDNAKNTVYLQMNSLKPEDTAVYYCAAGYYYYLRDHDYWGQGTQVTVSS | low polyreactivity |
| QVQLVESGGGLVQAGGSLRLSCAASGSIFRFYAMGWYIQAPGKERELVAAIRFSGGNTYYADSVKGRFTISCDNAKNTVYLQMNSLKPEDTAVYYCAKYRRVKPKRYDYDYWGQGTQVTVSS | high polyreactivity |
| QVQLVESGGGLVQAGGSLRLSCAASGSIFRFYAMGWYRQAPGKERELVAAISSGGSTYYADSVKGRFTISRDNAKNTVYLQMKSLKPEDTAVYYCAHGFAQYGLDLDPGDYDYWGQGTQVTVSS | low polyreactivity |
| QVQLVESGGGLVQAGGSLRLSCAASGSIFRFYAMGWYRQAPGKERELVADISWRGGSTYYADSVKGRFTISRDNAKNTVYLQMNSLKPEDTAVSYCAAGYYRASTTVTHGGIEGDSWGQGTQVTVSS | high polyreactivity |
| QVQLVESGGGLVQAGGSLRLSCAASGSIFRFYAMGWYRQAPGQERELVAAITSGGSTNYADSVKGRFTISRDNAKNTVYLQMNSLKPEDTAVYYCAAVLVYFFIYDYWGQGTQVTVSS | low polyreactivity |
| QVQLVESGGGLVQAGGSLRLSCAASGSIFRGNALGWYRQAPGKERELVATITNGGSTNYADSVKGRFTISRDNAKNTVYLQMNSLKPEDTAVYSCNADHSYHIASTRHVDYWGQGNQVTVSS | low polyreactivity |
| QVQLVESGGGLVQAGGSLRLSCAASGSIFRGYALGWYRQAPGKERALVAAITKRGGNTYYADSVKGRFTISRDHAKNTVYLQMNSLKPEDTAVYYCAKAGWGKWVYAQMVYWGQGTQVTVSS | high polyreactivity |
| QVQLVESGGGLVQAGGSLRLSCAASGSIFRGYAMGWYRQAPGKERELVAAITSSGGSTNYADSVKGRFTISRDNAKNTVYLQMNSLKPEDTAVYYCAKAPGLWHLIQRMDYWGQVTQVTVSS | low polyreactivity |
| QVQLVESGGGLVQAGGSLRLSCAASGSIFRGYAMGWYRQAPGKERELVAVIRRTSGSTYYADSVKGRFTISRDNAKNTVYLQMNSLKPEDTAVYYCNTLRHSSYPSYGYWGQGTQVTVSS | high polyreactivity |
| QVQLVESGGGLVQAGGSLRLSCAASGSIFRGYAMGWYRQAPGKERELVAVITKSGGRTYYADSVKGRFTISRDNAKNTVYLQMNRLKPEDTAVYYCAKQPGSAYDYWGQGTQVTVSS | high polyreactivity |
| QVQLVESGGGLVQAGGSLRLSCAASGSIFRGYTMGWYRQAHGKERELVAAITSGDSTNYADSVKGRFTISRDNAKNTVYLQMKSLKPEDTAVYSCAAVTRFYTKYYWGQGTQVTVSS | high polyreactivity |
| QVQLVESGGGLVQAGGSLRLSCAASGSIFRGYTMGWYRQAPGKERELVAAITSGDSTNYADSVKGRFTISRDNAKNTVYLQMNSLKPEDTAVYYCAAGRLYLPYLVYRTYSFVGYYYWGQGTQVTVSS | high polyreactivity |
| QVQLVESGGGLVQAGGSLRLSCAASGSIFRGYTMGWYRQATGKERELVAAITSGDSTNYADSVKGRFTISRDNAKNTVYLQMNSLKPEDTAVYYCAAGRLYLPYLVYLTYSFVGYYYWGQGTQVTVSS | high polyreactivity |

| Sequence | polyreactivity (PSR sort gate) |
| --- | --- |
| QVQLVESGGGLVQAGGSLRLSCAASGSIFRGYVRGWYRQAPGKERELVAAITWSTGSTYYADSVKGRFTISRDNAKNTVYLQMNSLKPEDTAVYYCAAVRRWAANRYQSGVTGNYWGQGTKVTVSS | high polyreactivity |
| QVQLVESGGGLVQAGGSLRLSCAASGSIFRHNAMGWYRQAPGKERELVAAISRRASSTYYADSVKGRFTISRDNAKNTVYVQMNSLKPEDTAVYYCAVVPSSTYHAYDYWGQGTQVTVSS | high polyreactivity |
| QVQLVESGGGLVQAGGSLRLSCAASGSIFRIKAMGWSRQAPGKERELVAAITGRVGSTYYADSVKGRFTISRDNAKNTVYLQMNSLKPEDTAVYYCAARAGSSRYTREYRYDYWGQGTQVTVSS | high polyreactivity |
| QVQLVESGGGLVQAGGSLRLSCAASGSIFRINAMGWYRPAPGKEREFVAAIRGSGGRTYYAESVKGRFTISRDNAKNTVYLQMNSLKPEDTAVYYCAADFSYRYFQRTSWPFDYWGQGTQVTVSS | high polyreactivity |
| QVQLVESGGGLVQAGGSLRLSCAASGSIFRINAMGWYRQAPGKERELVAAISWSGGSTYYADSVKGRFTISRDNAKNTVYVQMNSLKPEDTAVYYCAAVVSKSSFDYWGQGTQVTVSS | low polyreactivity |
| QVQLVESGGGLVQAGGSLRLSCAASGSIFRIYAMGGYRQAPGKERELVAAITGRGGSTYYADSVKGRFTISRDNAKNTVYLQRNSLKPEDTAVYYCAAEERYAYRYDYWGQATQVTVSS | high polyreactivity |
| QVQLVESGGGLVQAGGSLRLSCAASGSIFRIYAMGWYRQATGKETELVAAITWSGGSTYYADSVKGRFTISRDNAKNSVYLQMNSLKPEDTAVYYCAAVVIYWYQRVGYRSDYWGQGTQVTVSS | high polyreactivity |
| QVQLVESGGGLVQAGGSLRLSCAASGSIFRKNAMGRYRQAPGKERELVAAITGTGRTTYADSVKGRFTISRDNAKNTVYLQMNSLKPEDTAVYYCAADVNYYQHRLYYWGQGTQVTVSS | low polyreactivity |
| QVQLVESGGGLVQAGGSLRLSCAASGSIFRKNAMGWYRQAPGKERELVAAISSSGGRTYYADSVKGRFTISRDNAKNTVYLQMNSLKPEDTAVYYCNTGPGQSFRYNYWGQGTQVTVSS | high polyreactivity |
| QVQLVESGGGLVQAGGSLRLSCAASGSIFRLNAMGWYRQAPGKERELVAAISVSGTRTYYADSVKGRFTISRDNAKNIVYLQMNSLKPEDTAVYYCAARVYKGQGKGDYWGQGTQVTVSS | high polyreactivity |
| QVQLVESGGGLVQAGGSLRLSCAASGSIFRLNTKGGYRQAPGKERELVAAISNGGRTYYADSVTGRFTISRDNAKNTVYLQMNSLKPEDTAVYYCNVRYGRSKIYGYWGQGTQVTVSS | high polyreactivity |
| QVQLVESGGGLVQAGGSLRLSCAASGSIFRNNAMGWYRQAPGKERELVASITRRGGSTYYADSVKGRFTISRDNAKNTVYLQMNSLKPEDTAVYYCAATTQHRYKLNYWGQGTHVTVSS | high polyreactivity |
| QVQLVESGGGLVQAGGSLRLSCAASGSIFRNNAMGWYRQAPGKERELVAVINSRGGTTYYADSVKGRFTISRDNAMNPVYLQMNSLIPEDTAVYYCAARIRTSDRRYYWGQGTQVTVSS | high polyreactivity |
| QVQLVESGGGLVQAGGSLRLSCAASGSIFRNYAMGRSRQAPGKERELVAAITSGVRTNYADSVKGRFTISRDNAKNTVYLQMNSLKPEDTAVYYCNKGYNAVWRYRGDYWGQGTHVTVSS | high polyreactivity |
| QVQLVESGGGLVQAGGSLRLSCAASGSIFRNYAMGWSRQAPGKERELVAAINWNGGSTYYADSVKGRFTISRDNAKNTVYLQMNSLKPEDTAVYYCAARSSKFVTSNRYDYWGQGTQVTVSS | high polyreactivity |
| QVQLVESGGGLVQAGGSLRLSCAASGSIFRPNAMGWYRQAPGKERELVAAITFRGSRTYYADSVKGRFTISRDNAKNTVYLQMNSLKPEDTAVYYCNADYSSYWTSYDYWGQGTQVTVSS | high polyreactivity |
| QVQLVESGGGLVQAGGSLRLSCAASGSIFRPNAMGWYRQAPGKERELVAAITWSGDSTYYADSVKGRFTLSRDNAKNTVYRQMNSLKPVDTAVYYCATDPDYVLYRTAYYEFDYWGQGTHVTVSS | low polyreactivity |
| QVQLVESGGGLVQAGGSLRLSCAASGSIFRPNTMGWYRQAPGKERELVAAIRAGGRTYYADSVKGRFTISRDNAKNTVYLQMNSLKPEDTAVYYCNAVPASASTWRGQVGYDYWGQGTQVTVSS | high polyreactivity |
| QVQLVESGGGLVQAGGSLRLSCAASGSIFRPSAMGWYRQAPGKERELVAAIRWSTGNTYYADSVKGRFTISRDNAKNTVYLQMNSLKPEDTAVYYCAAAYWPVVWFYYWGQGTQVTVSS | low polyreactivity |
| QVQLVESGGGLVQAGGSLRLSCAASGSIFRPYAMGWYRQAPGKERELVAAITSGGRTNYADSVKGRFTISRDNAKNTVYLQMNSLKPEDTAVYYCAKTGSYAKIRPNNDYWGQGTQVTVSS | low polyreactivity |
| QVQLVESGGGLVQAGGSLRLSCAASGSIFRPYTMGWYRQAPGKEREFVAAITWSDGSTYYADSVKGRFTISRDNAKNTVYLQINSLKPLDTAVYDCAADLHDGYYYSFWYGYDYWGQGTQVTVSS | low polyreactivity |
